Test results published in US20240239894A1 (AstraZeneca / MedImmune, published 2024).

T1: Human B7-H4-Fc (Human B7H4 ECD, Fc_6His) (human)
T1 construct: also called FcHis6 tagged human B7-H4
T1 sequence (Q7Z7D3 whole entry, looked up): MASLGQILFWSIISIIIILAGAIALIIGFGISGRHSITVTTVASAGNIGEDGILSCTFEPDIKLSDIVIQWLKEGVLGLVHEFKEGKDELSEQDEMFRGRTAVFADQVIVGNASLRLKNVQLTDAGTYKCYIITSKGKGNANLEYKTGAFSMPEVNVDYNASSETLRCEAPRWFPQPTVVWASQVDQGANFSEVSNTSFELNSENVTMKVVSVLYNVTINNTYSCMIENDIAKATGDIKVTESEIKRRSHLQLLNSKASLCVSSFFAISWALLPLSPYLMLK

T2: huB7-H3 (human, UniProt Q5ZPR3 29-461, limits assumed)
T2 construct: Sourced antigen; construct not described; also called Human B7-H3
T2 sequence (looked up): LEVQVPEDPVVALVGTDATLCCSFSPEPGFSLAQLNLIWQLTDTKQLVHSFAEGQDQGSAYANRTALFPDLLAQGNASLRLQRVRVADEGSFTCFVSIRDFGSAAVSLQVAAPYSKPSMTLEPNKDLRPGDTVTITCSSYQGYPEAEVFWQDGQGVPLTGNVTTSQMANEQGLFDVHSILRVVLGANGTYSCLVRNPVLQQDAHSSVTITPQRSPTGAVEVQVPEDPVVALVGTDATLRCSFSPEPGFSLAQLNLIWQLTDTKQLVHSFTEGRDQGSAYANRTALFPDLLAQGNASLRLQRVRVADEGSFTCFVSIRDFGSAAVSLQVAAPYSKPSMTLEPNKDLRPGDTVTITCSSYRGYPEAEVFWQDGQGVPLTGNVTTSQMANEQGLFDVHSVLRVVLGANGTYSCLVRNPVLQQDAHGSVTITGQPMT

T3: huB7-H2 (human, UniProt O75144 19-258)
T3 construct: Sourced antigen; construct not described; also called Human B7-H2
T3 sequence (looked up): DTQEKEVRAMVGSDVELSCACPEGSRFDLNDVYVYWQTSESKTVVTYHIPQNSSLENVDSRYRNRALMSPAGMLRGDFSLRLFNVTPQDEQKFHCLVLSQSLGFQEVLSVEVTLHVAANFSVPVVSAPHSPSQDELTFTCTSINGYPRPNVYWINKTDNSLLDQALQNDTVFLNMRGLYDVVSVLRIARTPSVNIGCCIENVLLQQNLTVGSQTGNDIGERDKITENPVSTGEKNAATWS

T4: huBTNL3 (human, UniProt Q6UXE8 18-237, limits assumed)
T4 construct: Sourced antigen; construct not described; also called Human BTNL3
T4 sequence (looked up): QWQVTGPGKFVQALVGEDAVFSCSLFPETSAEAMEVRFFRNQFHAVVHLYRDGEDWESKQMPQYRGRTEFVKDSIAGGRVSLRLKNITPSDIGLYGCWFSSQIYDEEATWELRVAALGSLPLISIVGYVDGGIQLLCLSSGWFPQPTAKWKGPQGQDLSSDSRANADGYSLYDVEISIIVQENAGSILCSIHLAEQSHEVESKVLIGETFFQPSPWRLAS

T5: huBTN2A1 (human, UniProt Q7KYR7 29-248, limits assumed)
T5 construct: Sourced antigen; construct not described; also called Human BTN2A1
T5 sequence (looked up): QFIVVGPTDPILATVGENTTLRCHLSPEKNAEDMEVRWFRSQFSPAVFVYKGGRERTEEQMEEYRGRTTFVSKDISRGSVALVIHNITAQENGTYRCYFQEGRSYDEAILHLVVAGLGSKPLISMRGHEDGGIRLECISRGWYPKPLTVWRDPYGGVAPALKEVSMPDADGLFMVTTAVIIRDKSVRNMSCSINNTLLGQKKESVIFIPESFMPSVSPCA

T6: huBTN1A1 (human, UniProt Q13410 27-242, limits assumed)
T6 construct: Sourced antigen; construct not described; also called Human BTN1A1
T6 sequence (looked up): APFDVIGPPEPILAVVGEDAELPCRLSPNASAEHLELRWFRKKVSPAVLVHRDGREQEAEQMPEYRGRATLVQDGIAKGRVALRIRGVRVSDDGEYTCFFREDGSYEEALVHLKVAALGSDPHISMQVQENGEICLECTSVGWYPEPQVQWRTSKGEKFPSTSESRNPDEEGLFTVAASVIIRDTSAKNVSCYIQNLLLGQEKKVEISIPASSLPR

T7: huHHLA2 (human, UniProt Q9UM44 23-344)
T7 construct: Sourced antigen; construct not described; also called Human HHLA2
T7 sequence (looked up): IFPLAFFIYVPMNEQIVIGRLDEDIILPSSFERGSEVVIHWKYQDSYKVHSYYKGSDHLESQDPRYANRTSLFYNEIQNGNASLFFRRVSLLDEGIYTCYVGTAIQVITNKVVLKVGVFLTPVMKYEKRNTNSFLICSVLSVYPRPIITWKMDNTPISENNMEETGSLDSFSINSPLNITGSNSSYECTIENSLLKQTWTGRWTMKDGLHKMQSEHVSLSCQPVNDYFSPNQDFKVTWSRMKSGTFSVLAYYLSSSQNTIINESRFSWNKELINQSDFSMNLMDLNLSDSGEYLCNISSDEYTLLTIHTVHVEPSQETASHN

T8: Murine B7-H4-Fc (Mouse B7H4 ECD, Fc_6His) (mouse, UniProt Q7TSP5 25-257)
T8 construct: extracellular domain; also called mouse B7-H4-Fc; FcHis6 tagged murine B7-H4
T8 sequence (Q7TSP5 whole entry, looked up): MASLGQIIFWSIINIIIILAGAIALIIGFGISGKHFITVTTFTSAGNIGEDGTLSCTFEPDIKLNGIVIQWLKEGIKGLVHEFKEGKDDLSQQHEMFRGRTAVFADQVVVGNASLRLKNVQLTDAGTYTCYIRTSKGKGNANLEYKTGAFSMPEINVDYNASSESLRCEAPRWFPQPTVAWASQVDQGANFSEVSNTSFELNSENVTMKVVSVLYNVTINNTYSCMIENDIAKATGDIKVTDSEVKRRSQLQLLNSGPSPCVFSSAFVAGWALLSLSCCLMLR


Columns and labels:
[1] = biological target: T9, Cyno B7-H4-Fc (Cyno B7H4 ECD, FcTM_6His) (cynomolgus monkey); assay: HTRF binding, murine IgG1
T9 construct: extracellular domain; also called cynomolgus B7-H4-Fc

[2] = biological target: T1, Human B7-H4-Fc (Human B7H4 ECD, Fc_6His); assay: HTRF binding, murine IgG1
huB7-H3 = biological target: T2, huB7-H3; assay: ELISA, absorbance 450 nm, antigen human B7-H3 (ECD) Fc
huBTN3A2 = biological target: T10, huBTN3A2 (human, UniProt P78410 30-248, limits assumed); assay: ELISA, absorbance 450 nm, antigen human BTN3A2 GST
T10 construct: Sourced antigen; construct not described; also called Human BTN3A2
T10 sequence (P78410 30-248 limits assumed): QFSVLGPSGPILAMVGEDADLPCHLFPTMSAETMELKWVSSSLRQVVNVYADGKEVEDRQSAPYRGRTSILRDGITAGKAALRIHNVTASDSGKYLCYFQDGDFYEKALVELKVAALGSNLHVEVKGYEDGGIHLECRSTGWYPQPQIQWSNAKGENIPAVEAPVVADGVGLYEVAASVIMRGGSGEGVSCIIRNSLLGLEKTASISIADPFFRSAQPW

huB7-H1 = biological target: T11, huB7-H1 (human, UniProt Q9NZQ7 19-238); assay: ELISA, absorbance 450 nm, antigen human B7-H1(ECD) F10H
T11 construct: Sourced antigen; construct not described; also called Human B7-H1
T11 sequence (Q9NZQ7 19-238 limits assumed): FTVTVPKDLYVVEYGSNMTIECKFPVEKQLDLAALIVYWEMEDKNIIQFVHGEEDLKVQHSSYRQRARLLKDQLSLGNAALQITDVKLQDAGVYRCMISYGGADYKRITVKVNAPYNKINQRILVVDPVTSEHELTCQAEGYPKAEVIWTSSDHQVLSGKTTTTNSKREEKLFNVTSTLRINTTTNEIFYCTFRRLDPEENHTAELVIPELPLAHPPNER

huB7-H2 = biological target: T3, huB7-H2; assay: ELISA, absorbance 450 nm, antigen human B7-H2 (ECD) F10H
huBTNL3 = biological target: T4, huBTNL3; assay: ELISA
huBTN2A1 = biological target: T5, huBTN2A1; assay: ELISA
huBTN1A1 = biological target: T6, huBTN1A1; assay: ELISA, absorbance 450 nm, antigen human BTN1A1 GST
huHHLA2 = biological target: T7, huHHLA2; assay: ELISA, absorbance 450 nm, antigen human HHLA2 GST
[3] = biological target: T8, Murine B7-H4-Fc (Mouse B7H4 ECD, …); assay: HTRF binding, murine IgG1

Row | Binder | EC50 [1] [nM] | Max [1] | EC50 [2] [nM] | Max [2] | binding result (huB7-H3) | binding result (huB7-H1) | binding result (huB7-H2) | binding result (huBTNL3) | binding result (huBTN2A1) | binding result (huBTN1A1) | EC50 [3] [nM] | Max [3] | binding result (huBTN3A2) | binding result (huHHLA2)
1 | ZY0EOB-F05 murine IgG1 (antibody, V domains shown) VH: QVQLQESGPGLVKPSQTLSLTCTVSDGSISSGGYYWSWIRQHPGKGLEWIGNIYYSGSTYYNPSLKSRVTISVDTSKNQFSLKLNSVTAADTAVYYCATEKALATVTPSGYENYYTVDVWGQGTTVTVSS VL: DIQLTQSPSFLSASVGDRVTITCWASQGISSYLAWYQQKPGKAPKLLIYAASTLQSGVPSRFSGSGSGTEFTLTISSLQPEDFATYYCQHLNSYPLTFGGGTKVEIK | 0.32 | 2400 | 0.3 | 3020 | no binding | no binding (tested: 10 µg/ml (antigen)) | no binding (tested: 10 µg/ml (antigen)) | no binding | no binding | no binding (tested: 10 µg/ml (antigen)) | 0.38 | 2190 | no binding (tested: about 10 µg/ml (antigen)) | no binding (tested: about 10 µg/ml (antigen))
2 | ZY0EO5-E07 murine IgG1 (antibody, V domains shown, also called ZY0E05-E07; E05-E07) VH: QVQLQESGPGLVKPSQTLSLTCTVSGGSISSGGYYWSWIRQHPGKGLEWIGNIYYSGSTYYNPSLKSRVTISVDTSKNQFSLKLSSVTAADTAVYYCAREKALASVIPSGYENYYVVDVWGQGTTVTVSS VL: DIQLTQSPSFLSASVGGRVTITCWASQGIAGYLAWYQQKPGKAPKLLIYAASTLQSGVPSRFSGSGSGTEFTLTISSLQPEDFATYYCQHLNSYPLTFGGGTKVEIK | 0.71 | 1700 | 0.68 | 2150 | no binding | no binding (tested: 10 µg/ml (antigen)) | no binding (tested: 10 µg/ml (antigen)) | no binding | no binding | no binding (tested: 10 µg/ml (antigen)) | 0.73 | 1700 | no binding (tested: about 10 µg/ml (antigen)) | no binding (tested: about 10 µg/ml (antigen))
3 | human ZY0EP0-C07 (antibody, V domains shown) VH: QVQLVESGGVLVKPGGSLRLSCAASGFTLSDYYMSWIRQAPGMGLEWVSYISSSGSTIYYTDSVKGRFTISRDSAKNSLYLQMNSLRAEDTAVYYCARDGVGFDYWGQGTLVTVSS VL: EIVLTQSPGTLSLFPGERATLSCRASQSVSSSYLAWYQQKPGQSPRLLIYAASSRATGIPDRFSGSGSGTDFTLTISRLEPEDFAVYYCQQYGSSPLYTFGQGTKLEIK | – | – | – | – | no binding | no binding (tested: 10 µg/ml (antigen)) | no binding (tested: 10 µg/ml (antigen)) | – | – | no binding (tested: 10 µg/ml (antigen)) | – | – | no binding (tested: about 10 µg/ml (antigen)) | no binding (tested: about 10 µg/ml (antigen))

Second part, led by results:

Row | EC50 [1] [nM] | Max [1] | EC50 [2] [nM] | Max [2] | binding result (huB7-H3) | binding result (huB7-H1) | binding result (huB7-H2) | binding result (huBTNL3) | binding result (huBTN2A1) | binding result (huBTN1A1) | EC50 [3] [nM] | Max [3] | Binder | binding result (huBTN3A2) | binding result (huHHLA2)
4 | – | – | – | – | no binding | no binding (tested: 10 µg/ml (antigen)) | no binding (tested: 10 µg/ml (antigen)) | – | – | no binding (tested: 10 µg/ml (antigen)) | – | – | human ZY0EOB-F05 (antibody, V domains shown) VH: QVQLQESGPGLVKPSQTLSLTCTVSDGSISSGGYYWSWIRQHPGKGLEWIGNIYYSGSTYYNPSLKSRVTISVDTSKNQFSLKLNSVTAADTAVYYCATEKALATVTPSGYENYYTVDVWGQGTTVTVSS VL: DIQLTQSPSFLSASVGDRVTITCWASQGISSYLAWYQQKPGKAPKLLIYAASTLQSGVPSRFSGSGSGTEFTLTISSLQPEDFATYYCQHLNSYPLTFGGGTKVEIK | no binding (tested: about 10 µg/ml (antigen)) | no binding (tested: about 10 µg/ml (antigen))
5 | – | – | – | – | no binding | no binding (tested: 10 µg/ml (antigen)) | no binding (tested: 10 µg/ml (antigen)) | – | – | no binding (tested: 10 µg/ml (antigen)) | – | – | human ZY0EO5-E07 (antibody, V domains shown) VH: QVQLQESGPGLVKPSQTLSLTCTVSGGSISSGGYYWSWIRQHPGKGLEWIGNIYYSGSTYYNPSLKSRVTISVDTSKNQFSLKLSSVTAADTAVYYCAREKALASVIPSGYENYYVVDVWGQGTTVTVSS VL: DIQLTQSPSFLSASVGGRVTITCWASQGIAGYLAWYQQKPGKAPKLLIYAASTLQSGVPSRFSGSGSGTEFTLTISSLQPEDFATYYCQHLNSYPLTFGGGTKVEIK | no binding (tested: about 10 µg/ml (antigen)) | no binding (tested: about 10 µg/ml (antigen))
